Positions count from the first letter of the chain named. Names may count otherwise.

A word on the Km: it is the substrate concentration at which the rate is half of its maximum. Usually kcat stands for the number of substrate molecules converted per active site and unit of time at saturation. Broadly, the kcat/Km is the second-order rate constant that governs catalysis at low substrate concentration.

Substrate in data set [1]: Nc1ncnc2c1ncn2[C@@H]1O[C@H](COP(=O)(O)OP(=O)(O)OP(=O)(O)O)[C@@H](O)[C@H]1O
Briefly: purified protein, by the assay type.

Substrate in data set [2]: C[C@@H](O)[C@H](N)C(=O)O
Briefly: LC-MS of AMP formed from TC-AMP, Michaelis-Menten. As to conditions: 250 µM ATP, 50 mM NaHCO3, 10 mM MgCl2, Tricine pH 8.5, 37 °C. In kind it is biochemical, Homo sapiens.

B1: YRDCWT (human YRDC, ΔN43) T89A (Homo sapiens; T89A) (protein)
chain: MSPARRCRGMRAAVAASVGLSEGPAGSRSGRLFRPPSPAPAAPGARLLRLPGSGAVQAASPERAGWTEALRAAVAELRAGAVVAVPTDALYGLACAASCSAALRAVYRLKGRSEAKPLAVCLGRVADVYRYCRVRVPEGLLKDLLPGPVTLVMERSEELNKDLNPFTPLVGIRIPDHAFMQDLAQMFEGPLALTSANLSSQASSLNVEEFQDLWPQLSLVIDGGQIGDGQSPECRLGSTVVDLSVPGKFGIIRPGCALESTTAILQQKYGLLPSHASYL
Turning to B1, in data set [1], the Km is 230.7 ± 217.6 µM, the kcat was found to be 0.02 ± 0.001 s⁻¹ and the kcat/Km came to 90 ± 80 M⁻¹ s⁻¹.

B2: YRDCS195A (Homo sapiens; S238A) (protein)
chain: B1 chain with A89T, S238A
For the protein B2, in data set [1], the Km is 711.8 ± 175.5 µM, the kcat was 0.005 ± 0.0009 s⁻¹ and the kcat/Km was 7 ± 2 M⁻¹ s⁻¹.

B3: YRDCWT (human YRDC, ΔN43) (Homo sapiens; R253K) (protein)
chain: GARLLRLPGSGAVQAASPERAGWTEALRAAVAELRAGAVVAVPTDTLYGLACAASCSAALRAVYRLKGRSEAKPLAVCLGRVADVYRYCRVRVPEGLLKDLLPGPVTLVMERSEELNKDLNPFTPLVGIRIPDHAFMQDLAQMFEGPLALTSANLSSQASSLNVEEFQDLWPQLSLVIDGGQIGDGQSPECRLGSTVVDLSVPGKFGIIKPGCALESTTAILQQKYGLLPSHASYL
As to B3, in data set [1], the Km was found to be 737.5 ± 521.2 µM, the kcat turned out to be 0.005 ± 0.003 s⁻¹ and the kcat/Km amounted to 7 ± 6 M⁻¹ s⁻¹.

B4: YRDCWT (human YRDC, ΔN43) (Homo sapiens) (protein)
chain: B3 chain with K210R
As to B4, the Michaelis constant (Km) in data set [2] stood at 7800 µM.

(Values after paper doi:10.64898/2025.12.03.692196v2.)
